Assay results taken from patent US10077295B2, “Glycoproteins having lipid mobilizing properties and therapeutic uses thereof” (Aston University, priority 2010, dated 2018).

Columns and labels:
ob/ob mice [1] = test: ob/ob mice treated with ZAG, 21 day study; type: in vivo, mouse
Protocol: FIG. 7A is a graphical diagram showing weight loss of the ob/ob mice during the 21 day study. ZAG was injected at days 1, 4, 5, 8, 13, 16, 18, and 19; PBS was injected at the same time points.
Animals—Mice. Homozygous obese (ob/ob) mice from the colony maintained at Aston University were used in the present study. The origin and characteristics of Aston ob/ob mice have been previously described. Male mice (20-21 weeks old, weight 90-100 g) were grouped into three per cage in an air conditioned room at 22±2° C. with a 12 h-light:12 h-dark cycle and fed a rat and mouse breeding diet (Special Diet Services, Witham, UK) and tap water ad libitum. They were administered ZAG (35 μg) in PBS (100 μl) b.d. by i.v. administration and body weight and food and water intake were monitored daily. Control mice received PBS alone. Body temperature was measured daily by the use of a rectal thermometer (RS Components, Northants, UK). All animal experiments were carried out in accordance with the U.K. Animals (Scientific Procedures) Act 1986.
After 21 days, the plasma metabolite levels in the ob/ob mice were observed (Table 2), with monitored parameters shown in Table 3. […] It was noted that there is much more insulin in the pancreas in ZAG treated animals showing the drop in plasma insulin, which is not due to lower insulin production (e.g., as would happen with a toxin to pancreatic beta cells), but rather due to the fact that less insulin is needed to control blood glucose in the ZAG treated animals.

[2] = test system: rat epididymal adipocytes; test: Lipolytic activity in rat adipocytes; type: cell-based; conditions: concentrations between 233 and 700 nM
Protocol: Lipolytic Activity in Rat Adipocytes—White adipocytes were prepared from finely minced epididymal adipose tissue of male Wistar rats (400 g) using collagenase digestion, as described (Beck S A, et al. Production of lipolytic and proteolytic factors by a murine tumor-producing cachexia in the host. Cancer Res 47:5919-5923, 1987). Lipolytic activity was determined by incubating 10^5-2×10^5 adipocytes for 2 h in 1 ml Krebs-Ringer bicarbonate buffer, pH 7.2, and the extent of lipolysis was determined by measuring the glycerol released (Wieland O. Glycerol UV method. Methods of Enzymatic Analysis, edited by Bergmeyer H U. Academic Press, London, pp 1404-1409, 1974). Spontaneous glycerol release was measured by incubating adipocytes alone. Lipolytic activity was expressed as μmol glycerol released/10^5 adipocytes/2 h.

ob/ob mice [3] = test: Oral (p.o.) administration of rhZAG to ob/ob mice; type: in vivo, mouse
Protocol: 50 ug per day of rhZAG was administered p.o. to Aston ob/ob mice. Oral dosing was achieved by assuming 5 mL/day consumption of water, and adding ZAG to achieve 50 ug per day dose based on that assumption. No attempt was made to correct for variations of consumption on a given day.
Experiment One (8 Day Oral ZAG Study): 50 ug of ZAG was administered p.o. daily in drinking water.
Experiment Two (8 Day Oral ZAG Plus Propranolol Study): 50 ug of ZAG administered p.o. daily, with and without propranolol. Propanolol blocks all of the effects of ZAG including decrease in body weight and blood glucose in the tolerance test, also blocking the rise in body temperature and the rise in plasma mouse ZAG, confirming that this occurs through a beta adrenergic receptor. […] It appears to do this by preventing the rise in mouse ZAG in the serum after oral administration of the rhZAG.
Experiment Three (Oral Study): ZAG administered p.o. daily over an extended time frame, with a recovery group split from the treated group beginning at 30 days (data not shown).

ob/ob mice [4] = test: Body weight loss by route of administration of ZAG in ob/ob mice; type: in vivo, mouse; conditions: for Body weight loss / % of i.v. loss over the same time: 50 ug/day
Protocol: The goal of the study was to compare the efficacy of ZAG via various routes of administration. Mice were orally administered 50 μg ZAG or PBS (control). The results of are shown in FIGS. 31, 32, 33 (8 day oral ZAG study); 36, 37, 40 (8 day oral ZAG plus propranolol study); and FIGS. 47, 48 (oral ZAG gavage study). As shown in these repeated studies, ZAG was unexpectedly shown to be effective in bringing about weight change when administered orally by simply mixing low doses of ZAG in the drinking water of mice without requiring systemic absorption of administered ZAG. Typical oral dosing of proteins, such as insulin, can require up to 10× (or mega dosing) the intravenous dose to achieve the same level of efficacy and such limited efficacy requires systemic absorption of such proteins.

adipocytes, BAT = test: Expression of ZAG, HSL, UCP in adipose tissue/adipocytes of mice (5 day ZAG study); type: in vivo, mouse
Protocol: Western Blot Analysis. Freshly excised gastrocnemius muscles were washed in PBS and lysed in PHOSPHOSAFE™ Extraction Reagent for 5 min at room temperature followed by sonication at 4° C. The lysate was cleared by centrifugation at 18,000 g for 5 min at 4° C. and samples of cytosolic protein (5 μg) were resolved on 12% sodium dodecyl sulfate-polyacrylamide gel electrophoresis at 180V for approximately 1 h. This was followed by transference to 0.45 μm nitrocellulose membranes, which were then blocked with 5% Marvel in Tris-buffered saline, pH 7.5, at 4° C. overnight. Both primary and secondary antibodies were used at a dilution of 1:1000 except anti-myosin (1:250). Incubation was for 1 h at room temperature, and development was by ECL. Blots were scanned by a densitometer to quantify differences.
A 5 day study was performed where ZAG was administered at 35 μg per day i.v. on a daily basis for 5 days. At the end of the experiment tissues were removed and blotted, or functional assays were carried out with isolated adipocytes. […] When ep adipocytes were prepared and maintained in tissue culture (RPMI 1640+10% FCS) ZAG expression was maintained for a further 3 days, even though no ZAG was added to the culture medium (FIG. 6B). […] In fact, as discussed above, too much ZAG is more likely to lead to resistance rather than an increased response.

[5] = 50 ug p.o. daily in drinking water, 8 days

B1: ZAG: recombinant full length human zinc-α2-glycoprotein (SEQ ID NO: 1) secreted by transfected HEK293F cells; lipid mobilizing factor (protein, listed as Homo sapiens)
chain: QENQDGRYSLTYIYTGLSKHVEDVPAFQALGSLNDLQFFRYNSKDRKSQPMGLWRQVEGMEDWKEDSQLQKAREDMETLKDIVEYYNDSNGSHVLQGRFGCEIENNRSSGAFWKYYYDGKDYIEFNKEIPAWVPFDPAAQITKQKWEAEPVYVQRAKAYLEEECPATLRKYLKYSKNILDRQDPPSVVVTSHQAPGEKKKLKCLAYDFYPGKIDVHWTRAGQVQEPELRGDVLHNGNGTYQSWVVVAVPPQDTAPYSCHVQHSSLAQPLVVPWEAS
weight of the gastrocnemius muscles (ob/ob mice [1]; ob/ob mice): 0.7 ± 0.1 g | weight of brown adipose tissue (ob/ob mice [1]; ob/ob mice (FIG. 7)): 0.52 ± 0.08 g | BAT weight (ob/ob mice [1]; ob/ob mice, Day 21): 0.41 ± 0.35 g | Gastrocnemius weight (ob/ob mice [1]; ob/ob mice, Day 21): 0.39 ± 0.12 g | Glucose (plasma) (ob/ob mice [1]; ob/ob mice, Day 21): 15.2 ± 2.1 mmol/L | Glycerol (plasma) (ob/ob mice [1]; ob/ob mice, Day 21): 450 ± 36.2 | Insulin (plasma) (ob/ob mice [1]; ob/ob mice, Day 21): 28.5 ± 0.34 ng/mL | Insulin Pancreas (ob/ob mice [1]; ob/ob mice, Day 21): 14.5 ± 2.5 pg/g pancerase | NEFA (plasma) (ob/ob mice [1]; ob/ob mice, Day 21): 0.22 ± 0.06 mEq/l | Soleus weight (ob/ob mice [1]; ob/ob mice, Day 21): 0.18 ± 0.07 g | Triglycerides (plasma) (ob/ob mice [1]; ob/ob mice, Day 21): 0.89 ± 0.08 mmol/L | blood glucose (ob/ob mice [1]; ob/ob mice, Day 21): 15.2 mM | Finish weight (ob/ob mice [1]; ob/ob mice, Day 21, in g): 83.95 ± 2.2 | peak body temperature (ob/ob mice [1]; ob/ob mice, just before maximum weight loss): 38.1 °C | glycerol release from rat epididymal adipocytes [2]: dose-related increase in glycerol release | outcome of oral ZAG (ob/ob mice [3]; [5]): weight loss, increase in body temperature and a lowering of urinary glucose occurred | rhZAG in serum after oral administration (ob/ob mice [3]; [5]): absence of rhZAG in serum | endogenous murine ZAG after oral rhZAG (ob/ob mice [3]; 50 ug p.o. daily, 8 days): increase in murine ZAG in serum and WAT | body weight lost (ob/ob mice [3]; p.o. daily, half way through the extended study): 13.5% | persistence of orally administered rhZAG in the stomach (ob/ob mice [3]; p.o., ob/ob mice): ≥ 24 h | time before 50% reversion of urinary glucose to control after treatment stop (ob/ob mice [3]; recovery group): 12 days | efficacy of lowering of urinary glucose, oral vs i.v. (ob/ob mice [4]; after 5 days of dosing): equally as good | Body weight loss (ob/ob mice [4]; intraveneous, 20 Days): −9.0% | Body weight loss (ob/ob mice [4]; oral-casein (casein with ZAG in drinking water), 8 Days): −3.4% | % of i.v. loss over the same time (ob/ob mice [4]; oral-casein, 8 Days): 57% | % of i.v. loss over the same time (ob/ob mice [4]; oral-casein, 20 Days): 76% | Body weight loss (ob/ob mice [4]; oral-casein, 20 Days): −6.8% | Body weight loss (ob/ob mice [4]; oral-gavage (directly into the stomach), 8 Days): −2.3% | % of i.v. loss over the same time (ob/ob mice [4]; oral-gavage, 8 Days): 38% | Body weight loss (ob/ob mice [4]; oral-water (in the drinking water), 8 Days): −4.3% | % of i.v. loss over the same time (ob/ob mice [4]; oral-water, 8 Days): 72% | % of i.v. loss over the same time (ob/ob mice [4]; oral-water, 20 Days): 68% | Body weight loss (ob/ob mice [4]; oral-water, 20 Days): −6.1% | weight-loss efficacy of oral dosing relative to intravenous administration (ob/ob mice [4]; same dose): ≤ 75% | ZAG expression in epididymal, subcutaneous and visceral fat (adipocytes, BAT; 35 μg per day i.v., 5 days): about two-fold | time increased response to isoprenaline was maintained in tissue culture without ZAG (adipocytes, BAT; adipocytes from ZAG treated mice, isoprenaline 10 μM): 4 days | expression of phospho HSL in adipocytes (adipocytes, BAT; adipocytes of non-obese mice, 3 h): increased expression of phospho HSL | expression of UCP1 and UCP3 in BAT (adipocytes, BAT; ob/ob mice treated 5 days): increased the expression of UCP1
